Laboratory results from article PMC11574364.

Assays:
[1] = target: T1, QKI (recombinant His-QKI) (UniProt Q96PU8); test: fluorescence polarization; settings: 2 mM Mg2+; FP: 20 mM HEPES pH 7.4, 150 mM NaCl, 2 mM MgCl2, 1 U/ul RiboLock, 10 mM DTT, 3 nM Cy3-RNA, 5 min, room temperature; domain array: 20 mM Tris-HCl pH 7.4, 200 mM …
T1 sequence: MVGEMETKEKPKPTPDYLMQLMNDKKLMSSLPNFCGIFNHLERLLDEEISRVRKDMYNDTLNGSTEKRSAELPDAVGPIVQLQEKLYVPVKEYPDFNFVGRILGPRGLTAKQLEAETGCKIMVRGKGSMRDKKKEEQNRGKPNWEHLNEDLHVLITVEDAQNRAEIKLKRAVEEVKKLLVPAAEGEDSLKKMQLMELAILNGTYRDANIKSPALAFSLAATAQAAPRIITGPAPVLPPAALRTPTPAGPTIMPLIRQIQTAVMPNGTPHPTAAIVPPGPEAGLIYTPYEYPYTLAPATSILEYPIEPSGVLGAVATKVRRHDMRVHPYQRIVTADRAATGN

ZNF490 = ZNF490 (human, UniProt Q9ULM2 1-529); test: protein microarray; FP: 20 mM HEPES pH 7.4, 150 mM NaCl, 2 mM MgCl2, 1 U/ul RiboLock, 10 mM DTT, 3 nM Cy3-RNA, 5 min, room temperature; domain array: 20 mM Tris-HCl pH 7.4, 200 mM
Sequence of ZNF490 (Q9ULM2 whole entry): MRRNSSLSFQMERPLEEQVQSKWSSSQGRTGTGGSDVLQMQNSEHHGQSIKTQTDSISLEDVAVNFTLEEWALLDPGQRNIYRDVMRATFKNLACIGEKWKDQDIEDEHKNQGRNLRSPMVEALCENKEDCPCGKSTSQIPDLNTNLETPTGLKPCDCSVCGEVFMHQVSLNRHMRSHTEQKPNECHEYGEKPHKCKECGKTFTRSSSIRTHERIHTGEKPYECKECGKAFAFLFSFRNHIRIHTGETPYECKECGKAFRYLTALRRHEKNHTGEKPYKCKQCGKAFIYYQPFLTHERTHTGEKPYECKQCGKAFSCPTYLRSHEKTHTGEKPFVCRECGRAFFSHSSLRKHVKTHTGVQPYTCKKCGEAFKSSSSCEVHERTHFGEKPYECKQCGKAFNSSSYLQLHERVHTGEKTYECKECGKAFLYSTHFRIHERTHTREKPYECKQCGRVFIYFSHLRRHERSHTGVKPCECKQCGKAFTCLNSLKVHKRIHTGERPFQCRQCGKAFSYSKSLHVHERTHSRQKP

QKI (human ORF array) = target: T2, QKI (human ORF array) (human, UniProt Q96PU8 1-341); test: as above
T2 sequence: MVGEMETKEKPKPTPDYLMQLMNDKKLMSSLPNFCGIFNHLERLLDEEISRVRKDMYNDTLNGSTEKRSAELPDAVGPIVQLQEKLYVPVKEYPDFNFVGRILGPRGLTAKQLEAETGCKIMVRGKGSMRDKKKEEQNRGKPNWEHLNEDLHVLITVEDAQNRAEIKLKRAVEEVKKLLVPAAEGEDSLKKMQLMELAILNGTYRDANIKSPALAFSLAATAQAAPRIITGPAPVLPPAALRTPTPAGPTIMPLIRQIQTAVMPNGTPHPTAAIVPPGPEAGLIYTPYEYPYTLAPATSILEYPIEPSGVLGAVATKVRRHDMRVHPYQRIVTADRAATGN

ZIC3 = ZIC3 (human, UniProt O60481 1-467); test: as above
Sequence of ZIC3 (O60481 whole entry): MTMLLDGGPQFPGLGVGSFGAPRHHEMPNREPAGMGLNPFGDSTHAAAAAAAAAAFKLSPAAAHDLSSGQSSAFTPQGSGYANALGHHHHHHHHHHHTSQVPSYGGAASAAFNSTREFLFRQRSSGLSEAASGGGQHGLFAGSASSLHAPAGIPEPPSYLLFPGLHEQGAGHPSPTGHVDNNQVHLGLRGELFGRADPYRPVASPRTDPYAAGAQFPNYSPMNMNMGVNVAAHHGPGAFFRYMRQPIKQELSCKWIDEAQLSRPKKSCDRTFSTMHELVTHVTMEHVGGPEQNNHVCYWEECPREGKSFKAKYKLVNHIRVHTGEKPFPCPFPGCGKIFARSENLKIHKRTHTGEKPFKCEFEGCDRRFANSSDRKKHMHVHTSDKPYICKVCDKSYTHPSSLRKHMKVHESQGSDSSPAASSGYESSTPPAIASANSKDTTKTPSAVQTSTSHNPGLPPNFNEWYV

ZNF597 = target: T3, ZNF597 (human, UniProt Q96LX8 1-424); test: as above
T3 sequence: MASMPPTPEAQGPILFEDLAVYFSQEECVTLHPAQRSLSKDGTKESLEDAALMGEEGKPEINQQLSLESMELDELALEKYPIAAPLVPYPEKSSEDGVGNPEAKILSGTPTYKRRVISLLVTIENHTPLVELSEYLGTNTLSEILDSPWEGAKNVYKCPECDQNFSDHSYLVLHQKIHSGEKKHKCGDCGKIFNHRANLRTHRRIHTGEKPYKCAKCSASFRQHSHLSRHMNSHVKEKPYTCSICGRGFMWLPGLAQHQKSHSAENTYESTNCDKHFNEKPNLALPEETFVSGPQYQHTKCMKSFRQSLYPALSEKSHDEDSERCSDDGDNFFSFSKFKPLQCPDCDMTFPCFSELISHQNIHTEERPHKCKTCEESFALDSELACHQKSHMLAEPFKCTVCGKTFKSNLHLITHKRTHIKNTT

ISY1 = target: T4, ISY1 (human, UniProt Q9ULR0 1-285); test: as above
T4 sequence: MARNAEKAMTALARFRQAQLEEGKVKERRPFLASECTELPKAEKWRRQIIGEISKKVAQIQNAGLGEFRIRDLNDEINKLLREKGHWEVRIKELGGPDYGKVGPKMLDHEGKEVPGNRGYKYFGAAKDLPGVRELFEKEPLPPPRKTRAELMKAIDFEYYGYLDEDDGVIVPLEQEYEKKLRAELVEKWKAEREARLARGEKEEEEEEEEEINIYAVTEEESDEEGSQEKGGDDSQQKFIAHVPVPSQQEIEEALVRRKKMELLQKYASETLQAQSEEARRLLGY

ARL10 = target: T5, ARL10 (human, UniProt Q8N8L6 1-244); test: as above
T5 sequence: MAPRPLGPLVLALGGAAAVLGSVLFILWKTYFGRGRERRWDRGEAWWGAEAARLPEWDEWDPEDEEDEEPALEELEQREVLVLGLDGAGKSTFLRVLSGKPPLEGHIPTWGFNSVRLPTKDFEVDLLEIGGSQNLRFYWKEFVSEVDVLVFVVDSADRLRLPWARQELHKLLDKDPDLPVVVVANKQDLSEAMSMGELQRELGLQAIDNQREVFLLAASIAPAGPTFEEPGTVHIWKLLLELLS

[2] = target: T6, HIS-QKI (RNA-binding domain array) (human, UniProt Q96PU8 1-341); test: protein microarray probed with biotinylated miRNA; Domain array: 20 mM Tris-HCl pH 7.4, 200 mM KCl, 0.2 mM EDTA, 0.05% NP40, 2 ug/ul heparin, overnight 4 C. ORF array: PBS pH 7.0 with RNase inhibitor, 100 ng RNA; high values mean tight binding
T6 sequence: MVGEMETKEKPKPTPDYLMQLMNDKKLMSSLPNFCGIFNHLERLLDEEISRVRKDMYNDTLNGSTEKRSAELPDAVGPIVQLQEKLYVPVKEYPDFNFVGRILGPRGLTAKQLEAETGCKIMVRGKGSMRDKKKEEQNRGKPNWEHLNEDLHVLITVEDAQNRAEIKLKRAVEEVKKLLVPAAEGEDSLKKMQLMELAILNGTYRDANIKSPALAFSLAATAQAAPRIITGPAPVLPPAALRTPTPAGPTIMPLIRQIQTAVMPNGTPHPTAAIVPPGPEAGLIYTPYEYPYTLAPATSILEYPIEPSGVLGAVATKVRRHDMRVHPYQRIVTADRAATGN

Molecule: CAGUGCAAUGAUGAAAGGGCAU [miR-130b-Cy3]
- Kd [1]: 7.03 nM

Molecule: UGAGGUAGUAGGUUGUGUGGUU [let-7b-Cy3]
- Kd [1]: 8.07 nM

Molecule: UAGCUUAUCAGACUGAUGUUGA [miR-21-Cy3]
- Kd [1]: 48.5 nM

B1: let-7b (internal labeling) (ssRNA)
RNA: UGAGGUAGUAGGUUGUGUGGUU
modifications: 5' phosphate; amino-C6 U at position 18
- binding result (ZNF490): binds
- binding result (QKI (human ORF array)): binds
- binding result (ZIC3): binds
- binding result (ZNF597): binds
- binding result (ISY1): binds
- binding result (ARL10): binds

B2: miR-21 (internal labeling) (ssRNA)
RNA: UAGCUUAUCAGACUGAUGUUGA
- binding result (ZNF490): binds
- binding result (ZIC3): binds
- binding result (ZNF597): binds
- binding result (ISY1): binds
- binding result (ARL10): binds

B3: miR-130b (internal labeling) (ssRNA)
RNA: CAGUGCAAUGAUGAAAGGGCAU
- binding result (ZNF490): binds
- binding result (ZIC3): binds
- binding result (ZNF597): binds
- binding result (ISY1): binds
- binding result (ARL10): binds

B4: let-7b biotin/Cy3 (ssRNA)
RNA: UGAGGUAGUAGGUUGUGUGGUU
- binding signal [2]: 1340 ± 56.7 fluorescence intensity

B5: miR-21 biotin/Cy3 (ssRNA)
RNA: UAGCUUAUCAGACUGAUGUUGA
- binding signal [2]: 26.4 ± 0.354 fluorescence intensity

B6: miR-130b biotin/Cy3 (ssRNA)
RNA: CAGUGCAAUGAUGAAAGGGCAU
- binding signal [2]: 428 ± 18.2 fluorescence intensity

B7: let-7a biotin/Cy3 (ssRNA)
RNA: UGAGGUAGUAGGUUGUAUAGUU
- binding signal [2]: 336 ± 27.5 fluorescence intensity

B8: let-7c biotin/Cy3 (ssRNA)
RNA: UGAGGUAGUAGGUUGUAUGGUU
- binding signal [2]: 1280 ± 235 fluorescence intensity

B9: let-7d biotin/Cy3 (ssRNA)
RNA: AGAGGUAGUAGGUUGCAUAGUU
- binding signal [2]: 1210 ± 167 fluorescence intensity
